The target in assay [1] is microtubules polymerised from porcine tubulin (porcine) (UniProt P02550). Briefly: FRAP.
For assay [2] the target is unchanged. Description: FRAP. The source holds these as a separate data set.

Read-outs that look alike come from different tables or passages of the source.

With “Anillin-GFP (full-length human anillin, isoform 2, 1087 amino acids) (from UniProt Q9NQW6-2 1-1087) (natural protein)”, the koff stood at 0.26 s⁻¹ in assay [1] and 1.07 s⁻¹ in assay [2].

Source of the values: article doi:10.1101/2025.01.07.631698.
